Experimental data: patent publication US20130115677
Substitutions are numbered along the chain they refer to.

How the values were obtained:
Assay in all cases: cleavage_in_vitro
[1] = test system: T1, BspQI (Bacillus sphaericus); conditions: NEB4, 50 C, Mg2+
T1 sequence: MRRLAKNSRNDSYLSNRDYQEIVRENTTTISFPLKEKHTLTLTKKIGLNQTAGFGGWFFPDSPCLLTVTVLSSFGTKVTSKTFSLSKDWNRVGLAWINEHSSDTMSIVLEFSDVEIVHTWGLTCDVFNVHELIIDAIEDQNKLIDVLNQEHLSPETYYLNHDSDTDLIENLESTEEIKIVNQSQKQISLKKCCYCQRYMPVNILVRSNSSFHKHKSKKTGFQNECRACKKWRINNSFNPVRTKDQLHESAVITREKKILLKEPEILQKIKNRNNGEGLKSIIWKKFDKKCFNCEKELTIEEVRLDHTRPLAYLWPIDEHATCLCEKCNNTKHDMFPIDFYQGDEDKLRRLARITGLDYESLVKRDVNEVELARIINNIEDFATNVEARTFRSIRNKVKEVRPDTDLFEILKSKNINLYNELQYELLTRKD

BstXI-HF N65A = conditions: NEB4, 55 C, Mg2+
[2] = biological target: EcoRI-HF K62E (Escherichia coli RY13) (UniProt P00642); conditions: NEB4, 37 C, Mg2+
[3] = biological target: T2, HpaI (Haemophilus parainfluenzae) (UniProt P29537); conditions: NEB4, 37 C, Mg2+
T2 sequence: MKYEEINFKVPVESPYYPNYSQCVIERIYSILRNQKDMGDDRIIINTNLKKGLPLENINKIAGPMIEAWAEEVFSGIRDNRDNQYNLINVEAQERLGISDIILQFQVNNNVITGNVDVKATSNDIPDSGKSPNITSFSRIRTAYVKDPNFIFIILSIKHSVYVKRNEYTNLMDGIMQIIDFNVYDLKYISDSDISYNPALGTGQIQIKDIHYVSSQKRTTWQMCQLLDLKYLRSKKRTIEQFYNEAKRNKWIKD

[4] = test system: T3, NcoI-HF A2T/R31A (Nocardia corallina); conditions: NEB4, 37 C, Mg2+
T3 sequence: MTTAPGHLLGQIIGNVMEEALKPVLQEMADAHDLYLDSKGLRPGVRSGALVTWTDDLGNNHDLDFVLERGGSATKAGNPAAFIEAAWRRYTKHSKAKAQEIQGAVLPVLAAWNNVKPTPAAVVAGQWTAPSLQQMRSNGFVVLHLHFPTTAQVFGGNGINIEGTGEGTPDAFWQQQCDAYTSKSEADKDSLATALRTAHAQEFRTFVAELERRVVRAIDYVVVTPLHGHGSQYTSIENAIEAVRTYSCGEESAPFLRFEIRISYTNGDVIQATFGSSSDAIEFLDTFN

[5] = biological target: T4, PstI (Providencia stuartii 164) (UniProt P00640); conditions: NEB4, 37 C, Mg2+
T4 sequence: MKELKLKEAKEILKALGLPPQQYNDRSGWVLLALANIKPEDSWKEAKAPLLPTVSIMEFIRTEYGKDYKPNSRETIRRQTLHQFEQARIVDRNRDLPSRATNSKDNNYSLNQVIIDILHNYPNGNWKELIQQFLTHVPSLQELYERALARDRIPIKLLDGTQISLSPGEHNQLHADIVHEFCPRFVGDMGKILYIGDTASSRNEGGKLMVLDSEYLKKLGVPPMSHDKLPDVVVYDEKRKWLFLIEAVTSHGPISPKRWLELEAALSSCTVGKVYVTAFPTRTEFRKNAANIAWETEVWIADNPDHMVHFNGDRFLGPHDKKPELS

[6] = biological target: T5, PstI-HF D91A (Providencia stuartii 164) (UniProt P00640); conditions: NEB4, 37 C, Mg2+
T5 sequence: T4 sequence with D91A

[7] = test system: T6, SapI (Saccharopolyspora sp.); conditions: NEB4, 37 C, Mg2+
T6 sequence: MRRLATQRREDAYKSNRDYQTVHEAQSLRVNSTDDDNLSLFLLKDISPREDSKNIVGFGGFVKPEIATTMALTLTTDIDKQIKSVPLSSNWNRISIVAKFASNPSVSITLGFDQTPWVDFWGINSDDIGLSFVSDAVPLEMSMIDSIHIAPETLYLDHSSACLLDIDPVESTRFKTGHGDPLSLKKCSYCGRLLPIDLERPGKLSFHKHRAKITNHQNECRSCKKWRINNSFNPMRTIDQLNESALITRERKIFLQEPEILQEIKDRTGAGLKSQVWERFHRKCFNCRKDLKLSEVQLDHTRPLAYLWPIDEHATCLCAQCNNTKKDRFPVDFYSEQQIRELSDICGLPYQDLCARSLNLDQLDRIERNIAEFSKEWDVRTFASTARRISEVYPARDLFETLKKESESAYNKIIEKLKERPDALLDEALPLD

[8] = test system: T7, SbfI (Streptomyces species Bf-61?); conditions: NEB4, 37 C, Mg2+
T7 sequence: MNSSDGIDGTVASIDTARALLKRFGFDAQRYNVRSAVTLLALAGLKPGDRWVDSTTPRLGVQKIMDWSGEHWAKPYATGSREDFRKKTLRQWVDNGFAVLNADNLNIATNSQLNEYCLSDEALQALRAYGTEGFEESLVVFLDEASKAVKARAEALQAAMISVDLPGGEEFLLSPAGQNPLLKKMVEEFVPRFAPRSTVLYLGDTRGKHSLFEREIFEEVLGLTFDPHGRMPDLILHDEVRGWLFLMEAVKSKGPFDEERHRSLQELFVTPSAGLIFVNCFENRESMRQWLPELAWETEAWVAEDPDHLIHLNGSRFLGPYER

[9] = test system: T8, SphI-HF K100A (Streptomyces phaeochromogenes); conditions: NEB4, 37 C, Mg2+
T8 sequence: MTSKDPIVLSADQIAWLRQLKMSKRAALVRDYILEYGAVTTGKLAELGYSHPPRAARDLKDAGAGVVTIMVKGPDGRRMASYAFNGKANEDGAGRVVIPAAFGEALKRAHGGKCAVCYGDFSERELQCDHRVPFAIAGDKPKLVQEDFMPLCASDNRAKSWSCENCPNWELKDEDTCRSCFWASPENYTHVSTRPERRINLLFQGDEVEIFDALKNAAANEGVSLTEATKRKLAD

In the case of lambda DNA, the activity (fidelity index) [1] is reported as 4, the activity (fidelity index) (BstXI-HF N65A) is reported as > 250 and the activity (fidelity index) [2] is reported as 16000. For the same substance, the activity (fidelity index) [3] was 16, the activity (fidelity index) [4] was > 64000 and the activity (fidelity index) [5] was 8. The activity (fidelity index) [6] was 4000, the activity (fidelity index) [7] was 16 and the activity (fidelity index) [8] was 8. It also gave an activity (fidelity index) [9] of 8000.
